In ChEMBL document CHEMBL1145290, “Beta-glucuronidase-cleavable prodrugs of O6-benzylguanine and O6-benzyl-2'-deoxyguanosine” (J Med Chem, 2005):

Assays:
[1] = substrate: O=C(Nc1nc(OCc2ccccc2)c2ncn([C@H]3C[C@H](O)[C@@H](CO)O3)c2n1)OCc1ccc(O[C@@H]2O[C@H](C(=O)O)[C@@H](O)[C@H](O)[C@H]2O)c([N+](=O)[O-])c1; assay: (§1) KM value using bovine liver beta-glucuronidase obtained at 370 C in MOPS buffer of pH 7.0; conditions: Bos taurus
[2] = substrate: O=C(Nc1nc(OCc2ccccc2)c2[nH]cnc2n1)OCc1ccc(O[C@@H]2OC(C(=O)O)[C@@H](O)C(O)[C@@H]2O)c([N+](=O)[O-])c1; assay: as §1; conditions: Bos taurus
[3] = substrate: O=C(Nc1nc(OCc2ccccc2)c2ncn([C@H]3C[C@H](O)[C@@H](CO)O3)c2n1)OCc1ccc(O[C@@H]2O[C@H](C(=O)O)[C@@H](O)[C@H](O)[C@H]2O)c([N+](=O)[O-])c1; assay: (§2) Vmax value using bovine liver beta-glucuronidase obtained at 370 C in MOPS buffer of pH 7.0; conditions: Bos taurus
[4] = substrate: O=C(Nc1nc(OCc2ccccc2)c2[nH]cnc2n1)OCc1ccc(O[C@@H]2OC(C(=O)O)[C@@H](O)C(O)[C@@H]2O)c([N+](=O)[O-])c1; assay: as §2; conditions: Bos taurus
[5] = substrate: O=C(Nc1nc(OCc2ccccc2)c2ncn([C@H]3C[C@H](O)[C@@H](CO)O3)c2n1)OCc1ccc(O[C@@H]2O[C@H](C(=O)O)[C@@H](O)[C@H](O)[C@H]2O)c([N+](=O)[O-])c1; assay: (§3) KM value using Escherichia coli beta-glucuronidase obtained at 370 C in MOPS buffer of pH 7.0
[6] = substrate: O=C(Nc1nc(OCc2ccccc2)c2[nH]cnc2n1)OCc1ccc(O[C@@H]2OC(C(=O)O)[C@@H](O)C(O)[C@@H]2O)c([N+](=O)[O-])c1; assay: as §3
[7] = substrate: O=C(Nc1nc(OCc2ccccc2)c2ncn([C@H]3C[C@H](O)[C@@H](CO)O3)c2n1)OCc1ccc(O[C@@H]2O[C@H](C(=O)O)[C@@H](O)[C@H](O)[C@H]2O)c([N+](=O)[O-])c1; assay: (§4) Vmax value using Escherichia coli beta-glucuronidase obtained at 370 C in MOPS buffer of pH 7.0
[8] = substrate: O=C(Nc1nc(OCc2ccccc2)c2[nH]cnc2n1)OCc1ccc(O[C@@H]2OC(C(=O)O)[C@@H](O)C(O)[C@@H]2O)c([N+](=O)[O-])c1; assay: as §4

Protein | Km [1] [µM] | Km [2] [µM] | Vmax [3] [µmol/mg/min] | Vmax [4] [µmol/mg/min] | Km [5] [µM] | Km [6] [µM] | Vmax [7] [µmol/mg/min] | Vmax [8] [µmol/mg/min]
Beta-glucuronidase (Bos taurus), A3KMY8 (protein) MLRGSAGAWAVLGPLLWGCGLSLLQGGMLYPRESRSRERKELDGLWSFRADFSDNRRQGFEQQWYRAPLRESGPTLDMPVPSSFNDVGQDGQLRSFVGWVWYEREITLPQRWTEDLGTRVVLRIGSAHYYAIVWVNGVHVLEHEGGHLPFEADISKLVQSGPLSSCRITIAINNTLSPHTLPPGTILYKTDPSMYPKGYFVQNTKFDFFNYAGLHRSVLLYTTPTTYIDDITVTTDMDQDIGLVNYQIIVQGSDHFQVDVSLLDEEGKVMAKGAGAEGQLQVPSAHLWWPYLMHEHPAYLYSLEVKLTAQTAVGPVSDFYTLPVGIRTVAVTKSQFLINGKPFYFRGVNKHEDADIRGKGFDWPLLVKDFNLLRWLGANAFRTSHYPYSEEVLQLCDRYGIVVIDESPGVGIVLVESFSNVSLQHHLEVMEEMIRRDKNHPAVVMWSLANEPASFLKPAGYYFKTLIAHTKALDPSRPVTFVTNTNYEADLGAPYVDIICVNSYYSWYHDYGHMEVIQLQLATQFENWYKAYQKPMIQSEYGADAIEGFHEDPPLMFSEEYQKGLLQQYHVVLDQKRKEYVVGELIWNFADFMTNQSPVRMIGNRKGIFTRQRQPKSAAFLLRERYWKLANETRYQRSAVTSQCVGSGLFTV | 360 | 240 | 0.39 | 0.27 | – | – | – | –
Beta-glucuronidase (Escherichia coli (strain K12)), P05804 (protein) MLRPVETPTREIKKLDGLWAFSLDRENCGIDQRWWESALQESRAIAVPGSFNDQFADADIRNYAGNVWYQREVFIPKGWAGQRIVLRFDAVTHYGKVWVNNQEVMEHQGGYTPFEADVTPYVIAGKSVRITVCVNNELNWQTIPPGMVITDENGKKKQSYFHDFFNYAGIHRSVMLYTTPNTWVDDITVVTHVAQDCNHASVDWQVVANGDVSVELRDADQQVVATGQGTSGTLQVVNPHLWQPGEGYLYELCVTAKSQTECDIYPLRVGIRSVAVKGEQFLINHKPFYFTGFGRHEDADLRGKGFDNVLMVHDHALMDWIGANSYRTSHYPYAEEMLDWADEHGIVVIDETAAVGFNLSLGIGFEAGNKPKELYSEEAVNGETQQAHLQAIKELIARDKNHPSVVMWSIANEPDTRPQGAREYFAPLAEATRKLDPTRPITCVNVMFCDAHTDTISDLFDVLCLNRYYGWYVQSGDLETAEKVLEKELLAWQEKLHQPIIITEYGVDTLAGLHSMYTDMWSEEYQCAWLDMYHRVFDRVSAVVGEQVWNFADFATSQGILRVGGNKKGIFTRDRKPKSAAFLLQKRWTGMNFGEKPQQGGKQ | – | – | – | – | 41 | 17 | 11 | 7.8
